Measurements from patent publication US20170044230A1 (USTAV ORGANICKE CHEMIE A BIOCHEMIE AV CR, V.V.I., priority 2014, published 2017).
Non-standard residues stand in square brackets, D forms with d. Residues, ends and D or L forms follow the SMILES beside them. No end group written: not given here. *: point of attachment. 1Nal = N[C@@H](Cc1cccc2ccccc12)C(=O)O; Cha = N[C@@H](CC1CCCCC1)C(=O)O; Decanoyl = CCCCCCCCCC(=O)*; Octanoyl = CCCCCCCC(=O)*; Dap = NC[C@H](N)C(=O)O; Sar = CNCC(=O)O

Assays:
human GHS-R1a receptor = target: T1, human GHS-R1a receptor (Homo sapiens, UniProt Q92847); test: Competitive binding studies (displacement of 125I-ghrelin); conditions: for affinity for GHS-R1a compared with ghrelin: in words; for % of ghrelin binding: relative to ghrelin = 100
T1 construct: purchased Multispan, Hayward, Calif., USA; host or cells: HEK293T cells, isolated plasma membranes
T1 sequence (Q92847 whole entry): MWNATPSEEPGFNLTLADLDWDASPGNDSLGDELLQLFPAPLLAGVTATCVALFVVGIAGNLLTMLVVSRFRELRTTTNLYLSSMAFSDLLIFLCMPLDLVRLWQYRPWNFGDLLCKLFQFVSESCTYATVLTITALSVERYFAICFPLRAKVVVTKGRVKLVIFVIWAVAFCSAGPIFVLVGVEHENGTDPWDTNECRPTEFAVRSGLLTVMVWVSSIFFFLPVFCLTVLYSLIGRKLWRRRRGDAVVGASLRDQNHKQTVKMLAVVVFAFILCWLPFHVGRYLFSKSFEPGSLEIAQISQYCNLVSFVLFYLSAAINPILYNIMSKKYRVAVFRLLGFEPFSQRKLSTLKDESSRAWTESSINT
Procedure: Isolated plasma membranes from the HEK293T cells with transfected human GHS-R1a receptor (Multispan, Hayward, Calif., USA) were used. […] Experiments were carried out in duplicates at least three times. Competitive binding curves were plotted using GraphPad Prism Software (San Diego, Calif., USA) while comparing the best fit for single binding sites models.

fed C57BL/6 male mice = test: Effect of SC administered ghrelin analogs on food intake; type: in vivo; conditions: for maximal effect at 5 mg/kg on food intake: SC 5 mg/kg, evaluated 480 min after administration; for ED50 (250 min after injection), effect on food intake: SC, fed mice
Procedure: All of the experiments followed the ethical guidelines for animal experiments and Czech Republic law 246/1992 and were approved by the committee for experiments with laboratory animals of the Academy of Sciences of the Czech Republic. Male C57BL/6 mice (Charles River, Germany) were housed at a temperature 22±2° C. under a daily cycle of 12/12 h light/dark (light from 6:00) with free access to water and a standard chow diet St-1 which contained […] of calories from protein, fat and carbohydrate, respectively, and its energy content was 3.4 kcal/g (Mlýn Kocanda, Praha, Czech Republic). Mice were placed into separate cages for one week before experiment, they had free access to water and food pellets. Closely before the experiment, the food pellets were removed from the cages. […] 15 min after the injection, mice were given preweighed food pellets. Food intake was monitored for 8-10 hours at 30-min intervals. Mice had free access to water during the experiment. Experiments were performed at least twice for each tested compound, each experimental group had at least 5 mice.
Data from food intake experiments were analyzed by one-way ANOVA followed by Dunnett's post-hoc test using GraphPad Prism Software (San Diego, Calif., USA), P<0.05 was considered statistically significant. ED50 values were calculated using GraphPad Prism Software as the dose of the tested compound required to elicit half-maximal effect at 250 min after administration of the corresponding compound.
Food intake was monitored for […] after administration of the compounds. ED50 values were determined 250 min after administration. Maximal effect on food intake was evaluated […] after administration of the compounds at a dose of 5 mg/kg of body weight. NT—not tested.

[1] = target: T2, human GHS-R1a receptor (growth hormone secretagogue receptor 1a) (human, UniProt Q92847 1-366); test: competitive displacement of 125I-ghrelin, membranes of HEK293T cells with transfected human GHS-R1a
T2 construct: whole, on cells; Functional assays: HEK-293T cells transiently transfected with human GHS-R1a; also called ghrelin receptor
T2 sequence (Q92847 whole entry): as above
Procedure: Competitive binding studies were performed according to the principles of Motulsky and Neubig (Motulsky & Neubig, 2002). Isolated plasma membranes from the HEK293T cells with transfected human GHS-R1a receptor (Multispan, Hayward, Calif., USA) were used. […] The binding reaction was stopped by the addition of ice-cold washing buffer (20 mM Tris pH 7.4, 10 mM MgCl₂, 2.5 mM EDTA, 0.015% Triton X-100) followed by rapid filtration over GF/C filters (Whatman, Clifton, N.J., USA) presoaked with 0.5% PEI in binding buffer using a Brandel cell harvester (Brandel Inc., Gaithersburg, Md., USA). Bound radioactivity was determined by gamma counting (Wizard 1470 Automatic Gamma Counter; PerkinElmer Life and Analytical Sciences, Waltham, Mass.).

[2] = target: T2, human GHS-R1a receptor (growth hormone …); test: cell-based or functional assay

Molecule | % of ghrelin binding [1] [%] | Ki [1] [nM] | further results
CCCCCCCCCC(=O)NC[C@H](NC(=O)[C@H](CO)NC(=O)CNC)C(=O)N[C@@H](CC1CCCCC1)C(=O)N[C@@H](CC(C)C)C(=O)N[C@@H](CO)C(=O)N1CCC[C@H]1C(=O)N[C@@H](CCC(=O)O)C(=O)N[C@@H](Cc1c[nH]cn1)C(=O)N[C@@H](CCC(N)=O)C(=O)N[C@@H](CCCCN)C(=O)N[C@@H](C)C(=O)N[C@@H](CCC(N)=O)C(=O)N[C@@H](CCC(N)=O)C(=O)N[C@@H](CCCNC(=N)N)C(=O)N[C@@H](CCCCN)C(=O)N[C@@H](CCC(=O)O)C(=O)N[C@@H](CO)C(=O)N[C@@H](CCCCN)C(=O)N[C@@H](CCCCN)C(=O)N1CCC[C@H]1C(=O)N1CCC[C@H]1C(=O)N[C@@H](C)C(=O)N[C@@H](CCCCN)C(=O)N[C@@H](CC(C)C)C(=O)N[C@@H](CCC(N)=O)C(=O)N1CCC[C@H]1C(=O)N[C@@H](CCCNC(=N)N)C(=O)O [Analog 5] (H-[Sar]S[Dap](Decanoyl)[Cha]LSPEHQKAQQRKESKKPPAKLQPR-OH; N-terminus and C-terminus assumed) | – | – | affinity for GHS-R1a compared with ghrelin (human GHS-R1a receptor): higher affinities for GHS-R1a than ghrelin; % of ghrelin binding (human GHS-R1a receptor): 110%; maximal effect at 5 mg/kg on food intake (fed C57BL/6 male mice): 204.5 % of Dpr^3ghr; ED50 (250 min after injection), effect on food intake (fed C57BL/6 male mice): 1.02 mg/kg
CCCCCCCCCC(=O)NC[C@H](NC(=O)[C@H](CO)NC(=O)CNC)C(=O)N[C@@H](Cc1cccc2ccccc12)C(=O)N[C@@H](CC(C)C)C(=O)N[C@@H](CO)C(=O)N1CCC[C@H]1C(=O)N[C@@H](CCC(=O)O)C(=O)N[C@@H](Cc1c[nH]cn1)C(=O)N[C@@H](CCC(N)=O)C(=O)N[C@@H](CCCCN)C(=O)N[C@@H](C)C(=O)N[C@@H](CCC(N)=O)C(=O)N[C@@H](CCC(N)=O)C(=O)N[C@@H](CCCNC(=N)N)C(=O)N[C@@H](CCCCN)C(=O)N[C@@H](CCC(=O)O)C(=O)N[C@@H](CO)C(=O)N[C@@H](CCCCN)C(=O)N[C@@H](CCCCN)C(=O)N1CCC[C@H]1C(=O)N1CCC[C@H]1C(=O)N[C@@H](C)C(=O)N[C@@H](CCCCN)C(=O)N[C@@H](CC(C)C)C(=O)N[C@@H](CCC(N)=O)C(=O)N1CCC[C@H]1C(=O)N[C@@H](CCCNC(=N)N)C(=O)O [Analog 3] (H-[Sar]S[Dap](Decanoyl)[1Nal]LSPEHQKAQQRKESKKPPAKLQPR-OH; N-terminus and C-terminus assumed) | – | – | affinity for GHS-R1a compared with ghrelin (human GHS-R1a receptor): higher affinities for GHS-R1a than ghrelin; % of ghrelin binding (human GHS-R1a receptor): 176%; maximal effect at 5 mg/kg on food intake (fed C57BL/6 male mice): 220.3 % of Dpr^3ghr; ED50 (250 min after injection), effect on food intake (fed C57BL/6 male mice): 0.64 mg/kg
CCCCCCCC(=O)NC[C@H](NC(=O)[C@H](CO)NC(=O)CNC)C(=O)N[C@@H](Cc1ccc(Cl)c(Cl)c1)C(=O)N[C@@H](CC(C)C)C(=O)N[C@@H](CO)C(=O)N1CCC[C@H]1C(=O)N[C@@H](CCC(=O)O)C(=O)N[C@@H](Cc1c[nH]cn1)C(=O)N[C@@H](CCC(N)=O)C(=O)N[C@@H](CCCCN)C(=O)N[C@@H](C)C(=O)N[C@@H](CCC(N)=O)C(=O)N[C@@H](CCC(N)=O)C(=O)N[C@@H](CCCNC(=N)N)C(=O)N[C@@H](CCCCN)C(=O)N[C@@H](CCC(=O)O)C(=O)N[C@@H](CO)C(=O)N[C@@H](CCCCN)C(=O)N[C@@H](CCCCN)C(=O)N1CCC[C@H]1C(=O)N1CCC[C@H]1C(=O)N[C@@H](C)C(=O)N[C@@H](CCCCN)C(=O)N[C@@H](CC(C)C)C(=O)N[C@@H](CCC(N)=O)C(=O)N1CCC[C@H]1C(=O)N[C@@H](CCCNC(=N)N)C(=O)O [Analog 13] | – | – | % of ghrelin binding (human GHS-R1a receptor): 47%; maximal effect at 5 mg/kg on food intake (fed C57BL/6 male mice): 92.9 % of Dpr^3ghr
XSXFLSPEHQKAQQRKESKKPPAKLQPR (sarcosine (Sar) at position 1; diaminopropionic acid N-octanoyl (Dpr-N-oct) at position 3; Lys 24 N-palmitoyl (K(N-palm)), Synthetic ghrelin analog) [ghrelin analog no. 7, (Sar)S(Dpr-N-oct)FLSPEHQKAQQRKESKKPPAK(N-palm)LQPR] | 19 | 6.09 | –
XSXXLSPEHQKAQQRKESKKPPAKLQPR (sarcosine (Sar) at position 1; diaminopropionic acid N-octanoyl (Dpr-N-oct) at position 3; tertbutylalanine (tBu) at position 4, Synthetic ghrelin analog) [ghrelin analog no. 10, (Sar)S(Dpr-N-oct)(tBu)LSPEHQKAQQRKESKKPPAKLQPR] | 24 | 4.71 | –
XSXXLSPEHQKAQQRKESKKPPAKLQPR (sarcosine (Sar) at position 1; diaminopropionic acid N-myristoyl (Dpr-N-myr) at position 3; 1-naphtylalanine (1-Nal) at position 4, Synthetic ghrelin analog) [ghrelin analog no. 4, (Sar)S(Dpr-N-myr)(1-Nal)LSPEHQKAQQRKESKKPPAKLQPR] | 57 | 2.01 | Ca^2+ - EC50 [nM] (intracellular calcium mobilization, Fluo-4AM) [2]: 10.9 nM; IP1 - EC50 [nM] (inositol phosphate accumulation, IP-One HTRF) [2]: 9.75 nM
XSXFLSPEHQKAQQRKESKKPPAKLQPR (sarcosine (Sar) at position 1; diaminopropionic acid N-decanoyl (Dpr-N-dec) at position 3, Synthetic ghrelin analog) [ghrelin analog no. 1, (Sar)S(Dpr-N-dec)FLSPEHQKAQQRKESKKPPAKLQPR] | 183 | 0.63 | Ca^2+ - EC50 [nM] (intracellular calcium mobilization, Fluo-4AM) [2]: 9.66 nM; IP1 - EC50 [nM] (inositol phosphate accumulation, IP-One HTRF) [2]: 12.6 nM
XSXFLSPEHQKAQQRKESKKPPAKLQPR (sarcosine (Sar) at position 1; diaminopropionic acid N-10-undecynoyl (Dpr-N-10-undecyn) at position 3, Synthetic ghrelin analog) [ghrelin analog no. 11, (Sar)S(Dpr-N-10-undecyn)FLSPEHQKAQQRKESKKPPAKLQPR] | 139 | 0.83 | –

Further lines, with some results ahead:

% of ghrelin binding [1] [%] | Ki [1] [nM] | Molecule | further results
6 | 20.8 | XSXXLSPEHQKAQQRKESKKPPAKLQPR (sarcosine (Sar) at position 1; diaminopropionic acid N-octanoyl (Dpr-N-oct) at position 3; cyclohexylalanine (Cha) at position 4; Lys 24 N-palmitoyl (K(N-palm)), Synthetic ghrelin analog) [ghrelin analog no. 8, (Sar)S(Dpr-N-oct)(Cha)LSPEHQKAQQRKESKKPPAK(N-palm)LQPR] | –
76 | 1.51 | XSXFLSPEHQKAQQRKESKKPPAKLQPR (sarcosine (Sar) at position 1; diaminopropionic acid N-9-decenoyl (Dpr-N-9-decen) at position 3, Synthetic ghrelin analog) [ghrelin analog no. 12, (Sar)S(Dpr-N-9-decen)FLSPEHQKAQQRKESKKPPAKLQPR] | –
100 | – | GSS(Octanoyl)FLSPEHQKAQQRKESKKPPAKLQPR [Ghrelin] | –
